Data reported in patent US20180364250.

Test system: OTUB1

Chain of UBCH5C (chain, as listed by the source): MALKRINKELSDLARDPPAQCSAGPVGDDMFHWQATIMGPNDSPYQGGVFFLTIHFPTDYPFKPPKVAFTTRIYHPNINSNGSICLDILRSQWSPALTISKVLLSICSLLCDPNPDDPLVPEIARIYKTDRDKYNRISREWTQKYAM

UBCH5C
free ubiquitin released in a real-time deubiquitinase assay (3 µM OTUB1 with or without UbcH5c, 1 nM Atto532-tagged ubiquitin, 1 nM tIVR): OTUB1 activity is upregulated by UbcH5c, and this was detected by the experiment
